According to patent US20030171551A1 (published 2003):

Target: T1, soluble extracellular domain of HER2/neu (ECD) (UniProt P04626 23-652, limits assumed)
T1 construct: extracellular domain; Immobilized on the IAsys microcuvette; also called soluble HER2/neu antigen
Experiment: IAsys optical biosensor, HER2/neu ECD immobilized on the cuvette

Kd: 53 nM
B1: RANTES.Her2.IgG3 (other)
chain: SPYSSDTTPCCFAYIARPLPRAHIKEYFYTSGKCSNPAVVFVTRKNRQVCANPEKKWVREYINSLEMS
